Results on two substances are retold here after publication PMC12309361.

The target in assay [1] is PolC CBM sequence (QLSLF) peptide with the flanking amino acids from DnaE, fluorescein-labelled (B. subtilis). Nature of the assay: fluorescence polarisation; direct binding: B. subtilis DnaN in 3-fold serial dilution from 50 μM, 20 nM fluorescein-labelled peptide; 20 mM Tris-HCl pH 7.5, 100 mM NaCl, 5 mM BME, 10% glycerol, 0.1% pluronic acid F-68; fit to a 1:1 binding model.

Assay [2] addresses WT PolC CBM peptide (QLSLF) with flanking amino acids from PolC, fluorescein-labelled (B. subtilis). The assay is described as above.
Assay [3] shares this target. The assay is described as above. This is another data set of the same source.
Assay [4] concerns the target Pol III alpha CBM (Escherichia coli). To be noted: cited from earlier work.

Like-named read-outs stand apart in the source and are kept apart here.

As usually defined, the Kd is the concentration at which binding is half-saturated. “B. subtilis DnaN (sliding clamp), N-terminally His6-tagged (from UniProt P05649 1-378) (natural protein)”: the values for the Kd in assay [1], in assay [2] and in assay [3] were 7.2 µM, 3.8 µM and 3.9 µM, respectively.

For DnaN clamp (from UniProt P0A988), in assay [4], the Kd is 0.8 µM.
